Measurements reported in patent US20160177324A1, “NOVEL PROTEIN AND GENE RELATED TO FLAVONOID O-METHYLTRANSFERASE (FOMT) AND THEIR USES THEREFORE” (INSTITUTE OF BOTANY, THE CHINESE ACADEMY OF SCIENCES, priority 2013, published 2016).
Changes are numbered by the printed parent chain. Names and notes keep the numbering of the source.

Assays:
[1] = Comparison of activities among recombinant polypeptides with site mutagenesis; format: biochemical; conditions: for Activity (%), portion of recombinant protein activity compared with PsFOMT: Cy3G5G as substrate
Experimental: The reaction system was according to Hugueney et al. with some modification (Hugueney, P., et al., A novel cation-dependent O-methyltransferase involved in anthocyanin methylation in grapevine. Plant Physiology, 2009. 150(4): p. 2057-2070.). Purified recombinant FOMT (2 μg) was assayed in a final volume of 200 μL containing 200 μM SAM, 1 mM MgCl2, 14 mM β-mercaptoethanol, 100 mM Tris, pH 7.5, and 20 μM flavonoid substrates. Incubation was performed at 35° C. and stopped with 200 μL methanol containing 2% formic acid. For enzyme kinetic studies, purified FOMT was incubated based on the above condition with the exception that a range of substrate concentrations from 5 to 200 μM were used for Km determination. Reaction product was analyzed by a Dionex HPLC system (Sunnyvale, Calif.), equipped with a P680 HPLC pump, an UltiMate 3000 autosampler, a TCC-100 thermostated column compartment and a Dionex PDA100 photodiode array detector. The analytical column was C18 column of ODS 80Ts QA (150 mm×4.6 mm, 5 μm i.d., Tosoh, Tokyo) protected with a C18 guard cartridge (Shanghai ANPEL Scientific Instrument, Shanghai). The following solvent and gradient were used: A, 10% aqueous formic acid; B, methanol; constant gradient from 10 to 36% B within 15 min and back to 10% B in 3 min; the flow rate was 0.8 mL min^−1; Column temperature was maintained at 35° C.; 20 μL of analyte was injected. Chromatograms were obtained at 525 nm for anthocyanins and 350 nm for other flavonoids, and photodiode array spectra were recorded from 200 to 800 nm. Km and Vmax values were calculated from Lineweaver-Burk plots.
To validate the key amino acid responsible for the activity, site-directed mutagenesis was carried out using the PCR method and Fast Mutagenesis System (TransGen), and primer sequences used are given in Table 1. Four constructs were built following the template sequence of PtFOMT, named as PtFOMT-G13E, PtFOMT-T85A, PtFOMT-R87L, and PtFOMT-T205R. The corresponding recombinant proteins were purified and the catalytic activities were examined. […] The other mutants have no significant improved activity compared with PtFOMT. The leucine at 87-position is a vital residue for the methyltransferase activity.

[2] = tested on: Nicotiana tabacum cv.Nc89; experiment: Flavonoid O-methyltransferase activity in transgenic tobacco; format: in vivo
Text: The full length genes were introduced with a BamHl site and an XhoI site on 5′- and 3′-end by PCR with primers SEQ No. 5 & 6. The double digested fragment of interest and eukaryotic expression vector pBI121 with BamHl site and an XhoI were ligated. Then the appropriate constructs were introduced into Agrobacterium strain EHA105 by electroporation.
Leaf of Nicotiana tabacum cv.Nc89 plant (Donated by Professor Silan Dai, Beijing Forestry University) was disinfected by 75% ethanol for 30 s, followed by 2% sodium hypochlorite for 3 minutes, and then washed with sterile water for three times. The leaf was cut into squares (25 mm^2) A single colony of Agrobacterium strain EHA105 with pBI121-FOMT construct was used to inoculate with 2 mL of YEB medium (per liter: 5 g of beef extract, 1 g of yeast extract, 5 g of sucrose, and 0.5 g of MgSO4.7H2O), supplemented with 50 mg mL^−1 kanamycin and 25 mg mL^−1 Rifampicin. The culture was incubated at 28° C. until OD600 0.6-0.8, and the bacteria were pelleted by centrifugation at 5000 rpm for 5 minutes. The cells were washed by MS liquid medium and resuspended pellets with appropriate volume of MS liquid. The tobacco leaf squares were dipped into the bacteria solution for 8 minutes and cultivated on MS media containing 2.0 mg L^−1 6-benzylaminopurine (6-BA), 0.2 mg L^−1 1-naphthylacetic acid (NAA), and 500 mg L^−1 ceflomine. The explants were transferred to fresh selected medium after two weeks. When the regenerating plantlets grow to 2 cm, move them to MS media containing 0.2 mg L^−1 NAA to induce root. After four weeks, the transgenic tobacco plantlets were transferred to pots and kept in the greenhouse till flowering. The positive transgenic lines were selected by PCR, and transgenic plantlets with empty plasmid were used as control. The anthocyanins in transgenic petals were detected with an HPLC system.
Appropriate amount of sample (petal, fruits) was powdered with mortars and pestles and extracted for the first time with 2 mL 2% (v/v) formic acid methanol solution shaken in a QL-861 vortex (Kylinbell Lab Instruments, Jiangsu, China), sonicated in KQ-500DE ultrasonic cleaner (Ultrasonic instruments, Jiangsu Kunshan, China) at 20° C. for 20 min, centrifuged in SIGMA 3K30 (SIGMA centrifugers, Germany) (12000 rpm, 10 min), and the supernatant was collected. Additional 2 mL and 1 mL extraction solution was supplemented to the residue, and repeated aforesaid operation for the second and third times. All extract was pooled and filtrated through 0.22 μm reinforced nylon membrane filters (Shanghai ANPEL, Shanghai, China) before the HPLC-DAD and HPLC-ESI-MS^n analyses. Three replicates were performed for each sample. […]
HPLC-ESI-MS^n analysis was carried with an Agilent-1100 HPLC system equipped with a UV detector coupled to a LC-MSD Trap VL ion-trap mass spectrometer via an ESI source (Agilent Technologies, Palo Alto, Calif.). […] The MS conditions were listed as follow: negative-ion (NI) mode; capillary voltage of 3.5 kV; a nebulization pressure of 241.3 kPa; and a gas (N2) temperature of 350° C. with flow rate of 6.0 L min^−1 Capillary offset voltage was 77.2 V. MS spectra were recorded over the range from m/z 50-1000.

B1: PtFOMT: similar O-methyltransferase cloned from Paeonia tenuifolia, SEQ ID NO: 4; differs from PsFOMT at positions 13, 85, 87, 205 (protein, listed as Paeonia tenuifolia)
chain: MAESDRKGILKSGALLKYILETSVYPREHEQLKQLRQATVDKYKYWSVMNVPADEGQFLSMLLKIMNAKKTIEVGVFTGYSLLTTARALPTDAKITAIDPDGEAYETGLPFIKKAGVEHKINYIQADAMSVLDDLVTNGKEEGSFDFAFVDADKENYAKYHEPLMKLVKIGGIIGYDNTLWFGSVALSDGDEMKEFQEKGRRIFTEFNTFLAADPRIELAHISIGDGLALCRRLY
Question: Which results are given for B1?
Answer: Activity (%), portion of recombinant protein activity compared with PsFOMT ([1]; Incubation 5 min): 0%; Activity (%), portion of recombinant protein activity compared with PsFOMT ([1]; Incubation 30 min): 4.2%; flower color compared with control lines ([2]; transgenic tobacco flowers): no obvious difference; methyltransferase function in tobacco petal (new anthocyanin Pn3R detected) ([2]; transgenic tobacco petals vs empty vector): performed as a methyltransferase

B2: PtFOMT-G13E: site-directed mutant of PtFOMT, G13E (protein)
chain: B1 chain with G13E
Question: For B2, which “Activity (%), portion of recombinant protein activity compared with PsFOMT” value (from here on “Activity (%), portion”) ([1]; Incubation 5 min) is on record?
Answer: 0%

Question: What about the “Activity (%), portion” value ([1]; Incubation 30 min) of the same molecule?
Answer: 18.5%

B3: PtFOMT-T85A: site-directed mutant of PtFOMT, T85A (protein)
chain: B1 chain with T85A
Question: For B3, which “Activity (%), portion” value ([1]; Incubation 5 min) is on record?
Answer: 0%

Question: What about the “Activity (%), portion” value ([1]; Incubation 30 min) of the same molecule?
Answer: 14.0%

B4: PtFOMT-R87L: site-directed mutant of PtFOMT, R87L (protein)
chain: B1 chain with R87L
Question: For B4, which “Activity (%), portion” value ([1]; Incubation 5 min) is on record?
Answer: 100.7%

Question: What about the “Activity (%), portion” value ([1]; Incubation 30 min) of the same molecule?
Answer: 104.5%

Question: What about the “catalytic activity of site-directed mutants” value ([1]; recombinant purified proteins) of the same molecule?
Answer: regain the activity equal to PsFOMT

B5: PtFOMT-T205R: site-directed mutant of PtFOMT, T205R (protein)
chain: B1 chain with T205R
Question: With B5 as the molecule, how does the “Activity (%), portion” value ([1]; Incubation 5 min) read?
Answer: 0%

Question: And the “Activity (%), portion” value ([1]; Incubation 30 min)?
Answer: 38.1%
